Consider one substance from US20180044434A1.

For experiment [1], the target named is T1, Ala mutant of TA0096, SEQ ID NO: 32.
T1 sequence (peptide): EENMDAQWMQDEMEIGY
Nature of the experiment: ELISA, coated peptide. In general terms: An ELISA detects its analyte on a solid surface through an enzyme-linked reagent.

Experiment [2] addresses T2, Ala mutant having 3-amino acid substitution, SEQ ID NO: 46.
T2 sequence (peptide): EENMDDAAAQDEMEIGY
Nature of the experiment: ELISA, coated peptide.

Consider “anti-dinitrophenyl (DNP) antibody (negative control)”, for which the OD 490/630 nm in experiment [1] was 0.012; in experiment [2], 0.052.
